{"source": "paper PMC4002121", "about": "“Trimethylation of Histone H3 Lysine 36 by Human Methyltransferase PRDM9 Protein” (The Journal of Biological Chemistry, 2014)", "experiment_in_all_cases": "purified protein, by the assay type", "conditions_in_all_cases": "other: apparent Km of the peptide, AdoMet saturating 448 μM, 1 nM PRDM9, 10 mM Tris-HCl pH 8.5, 0.01% Triton X-100, 10 mM DTT, 20 min, 23 °C, mean ± S.D., n = 3, NA = not active", "key": {"[1]": {"substrate": "CC(C)[C@H](NC(=O)CNC(=O)CNC(=O)[C@@H](NC(=O)[C@H](C)NC(=O)[C@@H]1CCCN1C(=O)[C@H](C)NC(=O)[C@H](CO)NC(=O)[C@H](CCCCN)NC(=O)[C@H](CCCNC(=N)N)NC(=O)[C@H](C)NC(=O)[C@H](C)NC(=O)[C@H](CCCCN)NC(=O)[C@@H](NC(=O)[C@H](C)N)[C@@H](C)O)[C@@H](C)O)C(=O)N[C@@H](CCCCN(C)C)C(=O)N[C@@H](CCCCN)C(=O)N1CCC[C@H]1C(=O)N[C@@H](Cc1c[nH]cn1)C(=O)N[C@@H](CCCNC(=N)N)C(=O)N[C@@H](Cc1ccc(O)cc1)C(=O)N[C@@H](CCCNC(=N)N)C(=O)N1CCC[C@H]1C(=O)NCC(=O)O", "procedure": "(§1) To avoid the binding capacity limitation of scintillation proximity assay plates, a membrane-based assay was used for all kinetic studies. […] Apparent Km values were determined for AdoMet in reactions with each peptide by varying the AdoMet concentration. The highest concentration of AdoMet was 448 μM (5 μM [^3H]AdoMet plus 443 μM cold AdoMet). Dilutions of AdoMet were then made with assay buffer. The peptide concentration was kept at 5 μM. The assay buffer was 10 mM Tris-HCl, pH 8.5, 0.01% Triton X-100, and 10 mM DTT in a final volume of 20 μl. The reactions were started by addition of 1 nM PRDM9. The reaction mixtures were incubated for 20 min at 23 °C and quenched by adding 20 μl of 7.5 M guanidinium hydrochloride. 10 μl of quenched reaction mixture was spotted onto streptavidin-coated membrane squares (SAM2® Biotin capture membrane, Promega). The membrane was washed three times in 2 M NaCl for 2 min each time, then in water three times for 30 s each. The membrane was dried at 50 °C for 1 h and then each spotted square was cut from the membrane and placed in a scintillation vial. The amount of methylated peptide was quantified by tracing the radioactivity (cpm) as counted by a TriCarb liquid scintillation counter (PerkinElmer Life Sciences)."}, "[2]": {"substrate": "CNCCCC[C@H](NC(=O)[C@@H](NC(=O)[C@H](CCCNC(=N)N)NC(=O)[C@H](C)N)[C@@H](C)O)C(=O)N[C@@H](CCC(N)=O)C(=O)N[C@H](C(=O)N[C@@H](C)C(=O)N[C@@H](CCCNC(=N)N)C(=O)N[C@@H](CCCCN)C(=O)N[C@@H](CO)C(=O)N[C@H](C(=O)NCC(=O)NCC(=O)N[C@@H](CCCCN)C(=O)N[C@@H](C)C(=O)N1CCC[C@H]1C(=O)N[C@@H](CCCNC(=N)N)C(=O)N[C@@H](CCCCN)C(=O)N[C@@H](CCC(N)=O)C(=O)N[C@@H](CC(C)C)C(=O)N[C@@H](C)C(=O)N[C@H](C(=O)N[C@@H](CCCCN)C(=O)N[C@@H](C)C(=O)N[C@@H](C)C(=O)O)[C@@H](C)O)[C@@H](C)O)[C@@H](C)O", "procedure": "as §1"}, "[3]": {"substrate": "CC(C)C[C@H](NC(=O)[C@H](CCC(N)=O)NC(=O)[C@H](CCCCN)NC(=O)[C@H](CCCNC(=N)N)NC(=O)[C@@H]1CCCN1C(=O)[C@H](C)NC(=O)[C@H](CCCCN)NC(=O)CNC(=O)CNC(=O)[C@@H](NC(=O)[C@H](CO)NC(=O)[C@H](CCCCN)NC(=O)[C@H](CCCNC(=N)N)NC(=O)[C@H](C)NC(=O)[C@@H](NC(=O)[C@H](CCC(N)=O)NC(=O)[C@H](CCCCN(C)C)NC(=O)[C@@H](NC(=O)[C@H](CCCNC(=N)N)NC(=O)[C@H](C)N)[C@@H](C)O)[C@@H](C)O)[C@@H](C)O)C(=O)N[C@@H](C)C(=O)N[C@H](C(=O)N[C@@H](CCCCN)C(=O)N[C@@H](C)C(=O)N[C@@H](C)C(=O)O)[C@@H](C)O", "procedure": "as §1"}, "[4]": {"substrate": "CC(C)[C@H](NC(=O)CNC(=O)CNC(=O)[C@@H](NC(=O)[C@H](C)NC(=O)[C@@H]1CCCN1C(=O)[C@H](C)NC(=O)[C@H](CO)NC(=O)[C@H](CCCCN)NC(=O)[C@H](CCCNC(=N)N)NC(=O)[C@H](C)NC(=O)[C@H](C)NC(=O)[C@H](CCCCN)NC(=O)[C@@H](NC(=O)[C@H](C)N)[C@@H](C)O)[C@@H](C)O)C(=O)N[C@@H](CCCCN)C(=O)N[C@@H](CCCCN)C(=O)N1CCC[C@H]1C(=O)N[C@@H](Cc1c[nH]cn1)C(=O)N[C@@H](CCCNC(=N)N)C(=O)N[C@@H](Cc1ccc(O)cc1)C(=O)N[C@@H](CCCNC(=N)N)C(=O)N1CCC[C@H]1C(=O)NCC(=O)O", "procedure": "as §1"}, "[5]": {"substrate": "CNCCCC[C@H](NC(=O)[C@@H](NC(=O)CNC(=O)CNC(=O)[C@@H](NC(=O)[C@H](C)NC(=O)[C@@H]1CCCN1C(=O)[C@H](C)NC(=O)[C@H](CO)NC(=O)[C@H](CCCCN)NC(=O)[C@H](CCCNC(=N)N)NC(=O)[C@H](C)NC(=O)[C@H](C)NC(=O)[C@H](CCCCN)NC(=O)[C@@H](NC(=O)[C@H](C)N)[C@@H](C)O)[C@@H](C)O)C(C)C)C(=O)N[C@@H](CCCCN)C(=O)N1CCC[C@H]1C(=O)N[C@@H](Cc1c[nH]cn1)C(=O)N[C@@H](CCCNC(=N)N)C(=O)N[C@@H](Cc1ccc(O)cc1)C(=O)N[C@@H](CCCNC(=N)N)C(=O)N1CCC[C@H]1C(=O)NCC(=O)O", "procedure": "as §1"}}, "data": [{"protein": "PRDM9 (Homo sapiens) (protein) SEPQDDDYLYCEMCQNFFIDSCAAHGPPTFVKDSAVDKGHPNRSALSLPPGLRIGPSGIPQAGLGVWNEASDLPLGLHFGPYEGRITEDEEAANNGYSWLITKGRNCYEYVDGKDKSWANWMRYVNCARDDEEQNLVAFQYHRQIFYRTCRVIRPGCELLVWYGDEYGQELGIKWGSKWKKELMAGREPKP", "values": [{"measurement": "Km", "setting": "[1]", "value": "2.5 ± 0.3", "unit": "µM"}, {"measurement": "Km", "setting": "[2]", "value": "1 ± 0.2", "unit": "µM"}, {"measurement": "Km", "setting": "[3]", "value": "3 ± 1", "unit": "µM"}, {"measurement": "Km", "setting": "[4]", "value": "1.5 ± 0.2", "unit": "µM"}, {"measurement": "Km", "setting": "[5]", "value": "2.4 ± 0.4", "unit": "µM"}]}]}
